Assay results: US20250283129A1, “PROCESS” (Sun Pharmaceutical Industries Australia Pty Limited, priority 2021, published 2025)
Positions count from the first letter of the chain named. In names and notes the source's numbering stands. Like-named read-outs stand apart in the source and are kept apart here.

Experiments:
[1] = tested on: thebaine; experiment: Whole cell biotransformation of thebaine to oripavine by E. coli cells expressing CODM variants; format: cell-based; details: for average thebaine to oripavine yield: FIG. 5; for oripavine yield improved relative to WT CODM: oripavine yield assayed after 4 hours
[2] = tested on: codeine; experiment: Whole cell biotransformation of codeine to morphine by E. coli cells expressing CODM variants; format: cell-based; details: for average codeine to morphine yield: FIG. 5, morphine assayed after 30 minutes per legend; for morphine yield improved relative to WT CODM: morphine yield assayed after 30 minutes; for speed of biotransformation with codeine as substrate (in words): time course over two hours; for yield of morphine: time course, after one hour
[3] = morphine after 30 minutes, oripavine after 4 hours

B1: 17M: codeine 3-O-demethylase with amino acid substitution I7M (protein, listed as Papaver somniferum)
chain: METPILMKLGNGLSIPSVQELAKLTLAEIPSRYTCTGESPLNNIGASVTDDETVPVIDLQNLLSPEPVVGKLELDKLHSACKEWGFFQLVNHGVDALLMDNIKSEIKGFFNLPMNEKTKYGQQDGDFEGFGQPYIESEDQRLDWTEVFSMLSLPLHLRKPHLFPELPLPFRETLESYLSKMKKLSTVVFEMLEKSLQLVEIKGMTDLFEDGLQTMRMNYYPPCPRPELVLGLTSHSDFSGLTILLQLNEVEGLQIRKEERWISIKPLPDAFIVNVGDILEIMTNGIYRSVEHRAVVNSTKERLSIATFHDSKLESEIGPISSLVTPETPALFKRGRYEDILKENLSRKLDGKSFLDYMRM
average thebaine to oripavine yield ([1]; after 4 hours): 6%
average codeine to morphine yield [2]: 32%

B2: T3K: codeine 3-O-demethylase with amino acid substitution T3K (protein, listed as Papaver somniferum)
chain: B1 chain with T3K, M7I
product yield / performance compared to WT CODM strain (in words) [1, 3]: minor improvement in product yield

B3: 15K: codeine 3-O-demethylase with amino acid substitution I5K (protein, listed as Papaver somniferum)
chain: B1 chain with I5K, M7I
oripavine yield improved relative to WT CODM [1]: ~79%
morphine yield improved relative to WT CODM [2]: ~58%
speed of biotransformation with codeine as substrate (in words) [2]: faster than the WT CODM control
yield of morphine [2]: ~94%

B4: P4A: codeine 3-O-demethylase with amino acid substitution P4A (protein, listed as Papaver somniferum)
chain: B1 chain with P4A, M7I
product yield / performance compared to WT CODM strain (in words) [1, 3]: minor improvement in product yield

B5: E259D: codeine 3-O-demethylase with amino acid substitution E259D (protein, listed as Papaver somniferum)
chain: B1 chain with M7I, E259D
oripavine yield improved relative to WT CODM [1]: ~38%
morphine yield improved relative to WT CODM [2]: ~30%

B6: 15K+M360I: codeine 3-O-demethylase with amino acid substitutions I5K and M360I (protein, listed as Papaver somniferum)
chain: B1 chain with I5K, M7I, M360I
increase in oripavine yield relative to the WT CODM strain ([1]; Example 4, oripavine measured after 2 hours): 2.76 ×
speed of biotransformation with thebaine as substrate (in words) ([1]; time course over twenty-four hours): performed the fastest biotransformation
yield of thebaine to oripavine ([1]; time course, after ~five hours): ~95%
increase in morphine yield relative to the WT CODM strain ([2]; Example 4, morphine measured after 15 minutes): 2.3 ×
speed of biotransformation with codeine as substrate (in words) [2]: faster than the WT CODM control
yield of morphine [2]: ~94%

B7: E259G+R260K: codeine 3-O-demethylase with amino acid substitutions E259G and R260K (protein, listed as Papaver somniferum)
chain: B1 chain with M7I, E259G, R260K
product yield / performance compared to WT CODM strain (in words) [1]: improved compared to the WT CODM stain

B8: E259D+R260K: codeine 3-O-demethylase with amino acid substitutions E259D and R260K (protein, listed as Papaver somniferum)
chain: B1 chain with M7I, E259D, R260K
product yield / performance compared to WT CODM strain (in words) [1, 3]: improved compared to the WT CODM stain

B9: R260T: codeine 3-O-demethylase with amino acid substitution R260T (protein, listed as Papaver somniferum)
chain: B1 chain with M7I, R260T
less oripavine generated than WT CODM ([1]; after 4 hours): ~29%
less morphine generated than WT CODM ([2]; after 30 minutes): ~28%

B10: WT CODM: wild type codeine 3-O-demethylase (UniProtKB: D4N502), N-terminally fused to 6H and MBP, expressed in E. coli (protein, UniProt D4N502 1-360, looked up)
Codeine O-demethylase: B1 chain with M7I
modifications: N-terminal His6-MBP fusion
notes: wild type codeine 3-O-demethylase (UniProtKB: D4N502), N-terminally fused to 6H and MBP, expressed in E. coli
average thebaine to oripavine yield ([1]; after 4 hours): 47%
average codeine to morphine yield [2]: 47%

B11: M360I: codeine 3-O-demethylase with amino acid substitution M360I (protein, listed as Papaver somniferum)
chain: B1 chain with M7I, M360I
oripavine yield improved relative to WT CODM [1]: ~33%
morphine yield improved relative to WT CODM [2]: ~29%
speed of biotransformation with codeine as substrate (in words) [2]: faster than the WT CODM control but not as fast as the other two mutant strains

B12: E259G: codeine 3-O-demethylase with amino acid substitution E259G (protein, listed as Papaver somniferum)
chain: B1 chain with M7I, E259G
oripavine yield improved relative to WT CODM [1]: ~27%
morphine yield improved relative to WT CODM [2]: ~24%
